# Reference: paper PMC7523096 (bioRxiv, 2020)
# Where a chain is given by its changes, count along the chain named.
# B1: CC40.8 mAb (IgG) (antibody, V domains shown)
# VH: EVQLLESGGGLVQPGGSLRLSCAASGFTFSSYVMTWARQAPGKGLEWVSAISGTGYTYYADSVKGRFTVSRDNSKNTLFLQMSSLRAEDTAVYYCAITMAPVVWGQGTTVTVSS
# VL: SYELTQPPSVSVSPGQTARITCSGDALPKRYAYWYQQKSGQAPILVIYEDKKRPSGIPERLSGSKSGTVATLTISGAQVEDEADYYCYSTDSSGNHAVFGGGTQLTVL
# B2: CC9.3 mAb (IgG) (antibody, V domains shown)
# VH: QVQLQESGPGLVKPSETLSLTCTVSGGSIRSDFWSWIRQFPGKGLEWIGYIYYSGSTNYNPSLESRVTISVDTSKNEFSLKLNYVTAADTAIYYCARETRWNWLDSWGQGTLVTVSS
# VL: DIVMTQSPDSLAVSLGERASINCKSSQTISYISNNKNYLAWYQQKPGQPPRLLIYWASTRESGVPDRFSGGGFGTDFTLTISSLQAEDVAVYYCQQYFNTPWTFGQGTKVEIK
# B3: CC9.1 mAb (antibody, V domains shown)
# VH: EVQLVESGGGLVQPGRSLRLSCVAPGFTLGGYGMHWVRQAPGKGLEWVGLISYDGSVQKYGSSVKGRFTISKDNSKNTLYLEMNSLRADDTAVYFCVKGASLGDNWGQGTLVTVSS
# VL: EIVMTQSPLSLPVTLGQPASISCRSSQSLVYSDGDTYMSWFHQRPGQSPRRLIYKVSNRDSGVPDRFSGSGSGTDFTLKISRVEAEDVGVYYCMQGTHWPYTFGPGTKVEIK
# B4: CC9.2 mAb (IgG) (antibody, V domains shown)
# VH: B3 VH
# VL: B3 VL with S61F
# B5: second SARS-CoV-2/HCoV-HKU1 cross-reactive mAb from the CC40 donor (other than CC40.8; name not printed in the text) (antibody, V domains shown)
# VH: EVQLVESGGGVVQPGRSLRLSCVASGFTFSNYGMHWVRQAPGKGLEWVAVMSYDGSVTYYGDSVRGRFTISRDNSKNTLYLQMSSLRTDDTGVYYCAKGQPLDDIWGLGTLVTVSS
# VL: EIVMTQSPLSLPVSLGQSASISCRSSQSLVHTDGITYLSWFQQRPGQSPRRLLYKVSNRDSGVPDRFSGSGSGTDFTLKISRVEAEDVGVYYCLQGTYWPWTFGQGTKVEIK
# Biological target: SARS-CoV-2 N-terminal domain-NTD (residue 1-290) (SARS-CoV-2, Wuhan-Hu-1 (MN908947), UniProt P0DTC2)
# Assay: BLI
row,Binder,binding result
1,B1,no binding
2,B2,no binding
3,B3,no binding
4,B4,no binding
5,B5,no binding

# Biological target: SARS-CoV-2 receptor-binding domain-RBD (residue 320-527) (SARS-CoV-2, Wuhan-Hu-1 (MN908947), UniProt P0DTC2)
# Assay: BLI
row,Binder,binding result
1,B1,no binding
2,B2,no binding
3,B3,no binding
4,B4,no binding
5,B5,no binding

# Biological target: SARS-CoV-2 RBD-SD1 (residue 320-591) (SARS-CoV-2, Wuhan-Hu-1 (MN908947), UniProt P0DTC2)
# Assay: BLI
row,Binder,binding result
1,B1,no binding
2,B2,no binding
3,B3,no binding
4,B4,no binding
5,B5,no binding

# Biological target: SARS-CoV-2 RBD-SD1-2 (residue 320-681) (SARS-CoV-2, Wuhan-Hu-1 (MN908947), UniProt P0DTC2)
# Assay: BLI
row,Binder,binding result
1,B1,no binding
2,B2,no binding
3,B3,no binding
4,B4,no binding
5,B5,no binding
